Experimental data published in paper PMC4319893 (PLoS ONE, 2015).

Biological target: T1, SAP-97 PDZ1-2-3 (human, UniProt Q12959 220-554)
T1 construct: human SAP-97, residues 220-554; Synthetic DNA in a modified pRSET vector; source: E. coli BL21(DE3)pLysS, purified (His-Trap IMAC, MonoQ ion exchange)
Assay: fluorescence polarisation; competition against the monomeric CRIPT probe; 50 mM TRIS, 100 mM NaCl, 1 mM EDTA, 1 mM DTT; Ki calculated according to Nikolovska-Coleska et al.
Settings: both partners purified

T1 sequence (Q12959 220-554): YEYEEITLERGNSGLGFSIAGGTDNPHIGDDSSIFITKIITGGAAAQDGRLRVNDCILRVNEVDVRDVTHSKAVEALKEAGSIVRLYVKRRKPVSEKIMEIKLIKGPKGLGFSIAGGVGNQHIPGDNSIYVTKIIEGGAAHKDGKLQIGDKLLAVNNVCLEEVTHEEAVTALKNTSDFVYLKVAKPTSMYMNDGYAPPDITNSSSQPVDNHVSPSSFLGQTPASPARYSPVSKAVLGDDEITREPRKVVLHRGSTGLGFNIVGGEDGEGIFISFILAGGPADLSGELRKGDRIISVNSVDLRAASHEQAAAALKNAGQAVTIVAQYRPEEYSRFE

B1: CRIPT-06 (1) (peptide)
peptide: YKQTSV
notes: C-terminal hexapeptide of CRIPT; also called CRIPT hexapeptide; YKQTSV; source: synthetic peptide
Work on B1 yielded a Ki of 1000 nM.
